# Assay: yeast display, Sf9 membrane polyspecificity reagent, FACS + sequencing; frameworks hold sequencing errors
# Summary of the method: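 Galactose-induced (36–48 hours) yeast carrying a synthetic nanobody display library were exposed to 10% biotinylated, detergent-solubilized Sf9 membrane reagent at 4 °C for 1 hour. FACS followed streptavidin microbead enrichment, using low and high (top ~1%) gates for expression (anti-HA) and reagent binding (streptavidin). Colony PCR, MiSeq 2 × 250 sequencing and CDR-length filtering followed. Labels for polyreactivity reflect the gate of origin.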
row,Sequence,polyreactivity (PSR sort gate)
1,QVQLVESGGGLVQAGGSLRLSCAASGRTFAYNAMGWYRQAPGTERELVAAITGSGGRTYYADSVKGRFTLSRDNAKYTVYLQMNSLIPEDTAVYYCAVGLPSRYDYWGQGTQVTVSS,low polyreactivity
2,QVQLVESGGGLVQAGGSLRLSCAASGRTFAYNTMGWYRQAPGKERELVAAISTSGVRTFYADSVKGRFTISRDNAKNTVYLQMNSLKPEETAVYSYDWGQGTQVTVSS,low polyreactivity
3,QVQLVESGGGLVQAGGSLRLSCAASGRTFAYYAMGWYRPAPGKERELVATITRSGGITSYADSVKGRFTISRDNAKNTVYLQMSSLKPADTAVYYCNTGYSNRLHDYWGQGTQVTVSS,high polyreactivity
4,QVQLVESGGGLVQAGGSLRLSCAASGRTFAYYAMGWYRQAPGKERELVAAISTNGGTYYADSVKGRFTISRDNAKNTVYFQLNSLKPEDTAVYSCAAYTSYDVDYWGQGTQVTVSS,low polyreactivity
5,QVQLVESGGGLVQAGGSLRLSCAASGRTFDDYAMGGYSQAPGKERELVAAISWSGSSTYYADSVKGRFTISRDNAKNTVYLQMNSLKPEDTAVYYCAADSIRTLLTGNTVYIWYGYWGQGNQVTVSS,low polyreactivity
6,QVQLVESGGGLVQAGGSLRLSCAASGRTFDFYAMGWYRQAPGKERELDAAITFSTGSTTYADSVKGRFTISRDNAKNTVYLQMNSLKPEDTAVYYCNAYLYRKFGYRAYDYWGQGTQVTVSS,low polyreactivity
7,QVQLVESGGGLVQAGGSLRLSCAASGRTFDGYAMGWYRQAPGKERELVAAISGSGGRTYYADSVKGRFTISRDNAKNTVYLQMNSLKPEVTAVYYCRGYYKYYPDEYDYWGQGTQVTVSS,high polyreactivity
8,QVQLVESGGGLVQAGGSLRLSCAASGRTFDGYDMGSYRQAPGKERELVAAINVVGGSTYYADSVKGRFTISRDNAKNTVYLLMNSLKPEDTEVYYCAARRSYLTNFRRYYKMDYWGQGTQVTVAS,low polyreactivity
9,QVQLVESGGGLVQAGGSLRLSCAASGRTFDLNAMGWYRQAPGKERELVAGISSSGGRTYYADSVKGRFTISRDNAKNTVYLQMNSLKPEDTAVYYCAKVYPSYVLRKYDYWGQGTQVTVSS,high polyreactivity
10,QVQLVESGGGLVQAGGSLRLSCAASGRTFDPYAMGWYRQAPGKERELVAAITSGDDTYYADSVKGRFTISRDTAKNTVYLQMNSLKPEETAVYFCAAASFTPDYYSHDYWGQGTQVTVSS,low polyreactivity
11,QVQLVESGGGLVQAGGSLRLSCAASGRTFDPYARGGYRQAPGKERELVASISRGGSTYADSVKGRFTISRDNAKNTVYLQMNSLKPEDTAVYYCNTSLYTEGDAMDYWGQGTQVTVSS,low polyreactivity
12,QVQLVESGGGLVQAGGSLRLSCAASGRTFDRYAMGWYRQAPGKERELVAAISRGGSTNYADSVKGRFTISRDNAKNTVYLQMNSLKPEDTAVYYCAARVSFLHLRRAYDYWGQGTQVTVSS,high polyreactivity
13,QVQLVESGGGLVQAGGSLRLSCAASGRTFDRYTMGWYRRAPGKERELVATIRSTGSTYYADSVKGRFTISRDNAKNTVYLQMNSLKTEDTAVYYCNRKYRSSLPYGDGYWGQGTQVTVSS,low polyreactivity
14,QVQLVESGGGLVQAGGSLRLSCAASGRTFDSNAMGWYRQAPGKERELVAAISWSGGSTYYADSVKGRFTISRDNAKNTVYLQMNSLKPEDTAVYYCNRLGRHAPATRYGYWGQGTQVTVSS,high polyreactivity
15,QVQLVESGGGLVQAGGSLRLSCAASGRTFDVNAMGWYRQAPGKERELVAAITWDGGSTYYADSVKGRFTISRDNAKNTVYLQMNSLKPEDTAVYYCAADFIQGAWWYVTYRYTYEYWGQGTQVTVSS,low polyreactivity
16,QVQLVESGGGLVQAGGSLRLSCAASGRTFDYNAMGWYRQAPGKERELVADISNGGTTSYADSVKGRFTISRDNAKNTVYLQMNSLKPEDTAVYYCATLYDWSSFANSYWYFGWEEDYWGQGTQVTVSS,low polyreactivity
17,QVQLVESGGGLVQAGGSLRLSCAASGRTFDYNAMGWYRQAPGKERELVARISNGDSTYADSVKGRFTISRDNAKNTVYLQMNSLKPEDTAVYYCAARQEPGWYPDVWWEYDYWGEGTQVTVSS,low polyreactivity
18,QVQLVESGGGLVQAGGSLRLSCAASGRTFDYNTMGWYRPAPGKDRELVAAISASGGSTYYADSVKGRFTISRDNAKNTVYLQMNSLKPEDTAVYYCNTYAGVEYYHWGQGTQVTVSS,low polyreactivity
19,QVQLVESGGGLVQAGGSLRLSCAASGRTFDYYAMGWYRQAPGKERELVAAISSTGTSTYYGDSVKGRFTISRDNAKNTVYLQMNRLKPVDTAVYYCSAVSWYEYDYWGQGTQVSVSS,high polyreactivity
20,QVQLVESGGGLVQAGGSLRLSCAASGRTFDYYVMGWYRQAPGKERELVAAISTSGGRTYYADSVKGRFTISRDNAKNTVYLQMNSLKPEDTAVYYCAAYWGGWSFRYLYDYWGQGTQVTVSS,high polyreactivity
21,QVQLVESGGGLVQAGGSLRLSCAASGRTFEANAMGWYRQAPGKERELVASISRSGGNTYYADSVKGRFTISRDNAKNTGYLQMNSLKPEDTAVYYCAARFRVGQRRFNYWGQGTQVTVSS,high polyreactivity
22,QVQLVESGGGLVQAGGSLRLSCAASGRTFEFYTMGWYRQAPGKERELVAAINWSGSRTYYADSVKGRFTISRDNAKNTVYLQMNSLKPEDTAVYYCNAGEKRGLISIQGYDYWGQGTQVTVSS,high polyreactivity

row,Sequence,polyreactivity (PSR sort gate)
1,QVQLVESGGGLVQAGGSLRLSCAASGRTFEGNAMGWYRQAPGKERELDAAITSGGRTNYADSVKGRFTISRDNAKNTVYLQMNSLKPEDTAVYYCAVETRDRSTSFPGQAYDYWGQGSQVTVSS,low polyreactivity
2,QVQLVESGGGLVQAGGSLRLSCAASGRTFEGNAMGWYRQAPGKERELVAAINSSGGSTYYADSVKGRFTISRDNAKNTVYLQMNSLKPEDTAVYYCNAVAGPQGVKLYDYWGQGTQVTVSS,low polyreactivity
3,QVQLVESGGGLVQAGGSLRLSCAASGRTFEGNAMGWYRQAPGKERELVAAITSGGRTNYADSVKGRFTISRDNAKNTVYLQMNSLKPEDTAVYYCAAGQVSVGTIAKYDYWGQGTQVTVSS,low polyreactivity
4,QVQLVESGGGLVQAGGSLRLSCAASGRTFELNAMGWYRQAPGKERELVAAISWSGGSTYYADSVKGRFTISRDNAKNTVYLQMNSLKPEDTAVYYCAAQYQQGPFVKYYYWGQGTQVTVSS,high polyreactivity
5,QVQLVESGGGLVQAGGSLRLSCAASGRTFEQYAMGWYRQAPGKERELVAAISGSGGSTFYADSVKGRFTISRDNAKNTVYLQMNSLKPEDTAVYYCAVDAYPPFFYFTSVWFSYDYWGQGTQVTVSS,low polyreactivity
6,QVQLVESGGGLVQAGGSLRLSCAASGRTFESYAMGWYRPAPGKERELVAAITWSGGDTYYADSVKGRFTISRDNAKNTVYLQMNSLKPEDTAVYYCAKEQGLYSVSPYDYWGQGTQVTVSS,low polyreactivity
7,QVQLVESGGGLVQAGGSLRLSCAASGRTFESYAMGWYRQAAGKERELVAAIRSRGGSTNYADSVKGRFTISRDNAKNTVYLQMNSLKPEDTAVYYCNKDGTWVARAVTYADFDYWGQGTQVTVSS,low polyreactivity
8,QVQLVESGGGLVQAGGSLRLSCAASGRTFETNAMGWYRQAPGKERELVASINWSGGSTYYADSVKGRFTISRDNAKNTVYLQMNILKPEDTAVYYCAADHSYWDWWSYYYWGQGTQVTVSS,low polyreactivity
9,QVQLVESGGGLVQAGGSLRLSCAASGRTFEYYAMGWYRQAPGKERELVAAIDSGGSTNYADSVKGRFTISRDNAKNTVYLQMNSLKPEDTAVYYCATEVDQNYNYDYWGQCTQVTVSS,low polyreactivity
10,QVQLVESGGGLVQAGGSLRLSCAASGRTFEYYAMGWYRQAPGKERELVAAIDSGGSTNYADSVKGRFTISRDNAKNTVYLQMNSLKPEDTAVYYCATEVDQNYNYDYWGQGTQVTVSS,low polyreactivity
11,QVQLVESGGGLVQAGGSLRLSCAASGRTFFCYAMGWYRQAPGKERELVAAITYRGGGTYYADSVKGRFTISRDNAKNTVNLQMNSLKPEDTAVYYCAAEYWVGVYLYDYWGQGTQVTVSS,high polyreactivity
12,QVQLVESGGGLVQAGGSLRLSCAASGRTFFDYAMGWYRQAPGKERELVAAITSSGSSTYYADSVKGRFTISRDNAKNTVYLQMNSLKPEDTAVYYCAAGASANKKITSYDYWGQGTQVTVSS,low polyreactivity
13,QVQLVESGGGLVQAGGSLRLSCAASGRTFFFNAMGWYRQAPGIERELVATISWNGGDTYYADSVKGRFTISRDNAKNTVYLQMNSLKPEDTAVYDCNARVLWGQGTQVTVSS,high polyreactivity
14,QVQLVESGGGLVQAGGSLRLSCAASGRTFFGYAMGWYRQAPGKERELVAAISRGGGRTYYADSVKGRFTISRDNAKNTVYLQMNSLKPEDTAVYYCNAVTFSFYLYDWGQGTQVTVSS,high polyreactivity
15,QVQLVESGGGLVQAGGSLRLSCAASGRTFFGYAMGWYRQAPGKERELVAAISSRGDSTYYADSVKGRFTISRDNAKNTVYLQMNSLKPEDTAVYYCNAPVYTAAGYRYGTVRYGYWGQGTQVTVSS,low polyreactivity
16,QVQLVESGGGLVQAGGSLRLSCAASGRTFFGYAMGWYRQATGKERELVAAINWGGASTYYADSVKGRFTISRDNAKNTVYLQMNSLKPEDTAVYYCAADSVPSRPTYGRYDYWGQGTQVTVSS,low polyreactivity
17,QVQLVESGGGLVQAGGSLRLSCAASGRTFFHYAMGWYRQAPGKERELVAGISSGGRTKYADSVKGRFTISRDNAKNTVYLQMNSLKPEDTAVYYCAASYIVWLTRGAPRKRFDYWGQGTQVTVSS,high polyreactivity
18,QVQLVESGGGLVQAGGSLRLSCAASGRTFFINTMGWYRQAPGKEREFVAAITWSAGRTYYADSVKGRFTISRDNAKNTVYLQMNSLKPEDTAVYYCAAALHGHTFPFYYWGQGTLVTVSS,low polyreactivity
19,QVQLVESGGGLVQAGGSLRLSCAASGRTFFKYVMGWYRQAPGKERELVAAISSGGSTNYADSVKGRFTISRDNAKNTVYLQMNSLKPEDTAVYYCATYDPARSTQGYDYWGQGTQVTVSS,high polyreactivity
20,QVQLVESGGGLVQAGGSLRLSCAASGRTFFKYVMGWYRQAPGKERELVAAISYRSGSTYYADSVKGRFTISRDNAKNTVYLQMNSLKPEDTAVYYCAIEPPPVKGDYWGQGTQVTVSS,low polyreactivity
21,QVQLVESGGGLVQAGGSLRLSCAASGRTFFNYGMGWYRQAPGKEREFVARISFSGGSTYYADSVKGRFTISRDNAKNTVYLQMNSVKPEDTAVYYCNARVFPFAYRYGYWGQGTQVTVSS,high polyreactivity

# Reference: the nanobody polyreactivity screen of Harvey et al. (2022)
